The target of test [1] is Trefoil factor 3 (TFF3), recombinant mature form (residues 22-80) (human). Kind of test: SPR; Biacore T200; TFF peptides immobilised on a CM5 chip (10 mM sodium acetate pH 4.0); purified proteins as analytes at 30 µL/min, 2 min association; multiple cycle kinetics, 1:1 model.
The target in another test is T1, murine TFF3 (mTFF3) (mouse, UniProt Q62395 23-81).
T1 chain: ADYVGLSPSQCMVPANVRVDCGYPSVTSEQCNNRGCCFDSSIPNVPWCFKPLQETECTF
Kind of test: SPR. (In general: Surface plasmon resonance follows binding to a sensor surface in real time, without labels.)

Broadly, the Kd is the equilibrium constant for the complex coming apart.

For “extracellular domain of CD147 (CD147^ECD) (domain or fragment)”, the dissociation constant Kd in test [1] turned out to be 2030 nM.

B1: murine CD147^ECD (mCD147^ECD) (domain or fragment)
chain: AAGTIQTSVQEVNSKTQLTCSLNSSGVDIVGHRWMRGGKVLQEDTLPDLHTKYIVDADDRSGEYSCIFLPEPVGRSEINVEGPPRIKVGKKSEHSSEGELAKLVCKSDASYPPITDWFWFKTSDTGEEEAITNSTEANGKYVVVSTPEKSQLTISNLDVNVDPGTYVCNATNAQGTTRETISLRVRSR
In the test with murine TFF3 (mTFF3), B1 gave a Kd of 2510 nM.

The values above are taken from paper PMC8280106 (2021).
